Results as given in patent US20250236651A1.

B1: Lysin Hydroxylase 3 (LH3), exogenous human (enzyme)
chain: SDRPRGRDPVNPEKLLVITVATAETEGYLRFLRSAEFFNYTVRTLGLGEEWRGGDVARTVGGGQKVRWLKKEMEKYADREDMIIMFVDSYDVILAGSPTELLKKFVQSGSRLLFSAESFCWPEWGLAEQYPEVGTGKRFLNSGGFIGFATTIHQIVRQWKYKDDDDDQLFYTRLYLDPGLREKLSLNLDHKSRIFQNLNGALDEVVLKFDRNRVRIRNVAYDTLPIVVHGNGPTKLQLNYTYPEHERELGNYVPNGWTPEGGCGFCNQDRRTLPGGQPPPRVFLAVFVEQPTPFLPRFLQRLLLLDYPPDRVTLFLHNNEVFHEPHIADSWPQLQDHFSAVKLVGPEEALSPGEARDMAMDLCRQDPECEFYFSLDADAVLTNLQTLRILIEENRKVIAPMLSRHGKLWSNFWGALSPDEYYARSEDYVELVQRKRVGVWNVPYISQAYVIRGDTLRMELPQRDVFSGSDTDPDMAFCKSFRDKGIFLHLSNQHEFGRLLATSRYDTEHLHPDLWQIFDNPVDWKEQYIHENYSRALEGEGIVEQPCPDVYWFPLLSEQMCDELVAEMEHYGQWSGGRHEDSRLAGGYENVPTVDIHMKQVGYEDQWLQLLRTYVGPMTESLFPGYHTKARAVMNFVVRYRPDEQPSLRPHHDSSTFTLNVALNHKGLDYEGGGCRFLRYDCVISSPRKGWALLHPGRLTHYHEGLPTTWGTRYIMVSFVDP

Assays:
[1] = target: SPIDICOL1 (Spidroin-I/Collagen Type-I fusion protein) (Nephila clavipes; human)
[2] = target: FIB3COL1 (Fibroin-III/Collagen Type-I fusion protein) (Araneus diadematus; human)
[3] = target: native Bovine Collagen Type I (Thermo Fisher) (bovine) (UniProt P02453)
[4] = target: SPIDICOL1 (Spidroin-I/Collagen Type-I fusion protein) (Nephila clavipes; human); remark: listed apart in the source
[5] = target: FIB3COL1 (Fibroin-III/Collagen Type-I fusion protein) (Araneus diadematus; human); remark: listed apart in the source

Molecule	degradation of the electrospun scaffold (mass over time) [1] [h]	degradation of the electrospun scaffold (mass over time) [2] [h]	degradation of the electrospun scaffold (mass over time) [3] [h]	hydroxylysine content (amino acid analysis) [4] [fold]	hydroxylysine content (amino acid analysis) [5] [fold]
collagenase (enzyme)	96	100	64	–	–
B1	–	–	–	36	39
